B1: BTE-0151 (bispecific antibody, human IgG1, kappa, L234A L235A)
heavy: QVQLQQWGAGLLKPSETLSLTCAVYGGSFSPYYWSWIRQPPGKGLEWIGEINHSGSTNYNPSLKSRVTISVDTSKNQFSLKLSSVTAADTAVYYCARRAGDFDYWGQGTLVTVSSASTKGPSVFPLAPSSKSTSGGTAALGCLVKDYFPEPVTVSWNSGALTSGVHTFPAVLQSSGLYSLSSVVTVPSSSLGTQTYICNVNHKPSNTKVDKKVEPKSCDKTHTCPPCPAPEAAGGPSVFLFPPKPKDTLMISRTPEVTCVVVDVSHEDPEVKFNWYVDGVEVHNAKTKPREEQYNSTYRVVSVLTVLHQDWLNGKEYKCKVSNKALAAPIEKTISKAKGQPREPQVYTLPPSRDELTKNQVSLSCAVKGFYPSDIAVEWESNGQPENNYKTTPPVLDSDGSFFLVSKLTVDKSRWQQGNVFSCSVMHEALHNHYTQKSLSLSPGK
light: not shown
scFv: not shown
notes: anti-CD37/anti-CD3
B2: BTE-0138 (bispecific antibody, human IgG1, kappa, L234A L235A)
heavy: B1 heavy
light: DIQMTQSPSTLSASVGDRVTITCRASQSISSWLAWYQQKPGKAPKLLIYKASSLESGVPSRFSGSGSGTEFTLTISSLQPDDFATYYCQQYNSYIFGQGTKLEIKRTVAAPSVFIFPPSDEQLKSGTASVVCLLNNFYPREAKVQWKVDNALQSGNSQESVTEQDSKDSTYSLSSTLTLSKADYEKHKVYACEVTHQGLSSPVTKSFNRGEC
scFv: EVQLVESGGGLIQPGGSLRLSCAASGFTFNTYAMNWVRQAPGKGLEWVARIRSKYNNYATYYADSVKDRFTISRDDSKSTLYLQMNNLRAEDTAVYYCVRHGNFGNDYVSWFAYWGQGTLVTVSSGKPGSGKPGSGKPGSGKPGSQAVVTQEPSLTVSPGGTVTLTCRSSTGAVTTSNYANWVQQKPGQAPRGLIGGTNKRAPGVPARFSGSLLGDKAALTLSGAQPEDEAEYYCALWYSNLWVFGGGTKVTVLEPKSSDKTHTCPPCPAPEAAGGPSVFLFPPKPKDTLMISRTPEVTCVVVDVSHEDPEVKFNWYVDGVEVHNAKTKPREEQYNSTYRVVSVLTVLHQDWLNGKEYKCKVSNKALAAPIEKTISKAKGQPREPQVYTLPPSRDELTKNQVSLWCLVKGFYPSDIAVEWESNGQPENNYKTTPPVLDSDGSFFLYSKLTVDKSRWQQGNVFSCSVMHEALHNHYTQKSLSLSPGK
notes: anti-CD37/anti-CD3
B3: BTE-0137 (bispecific antibody, human IgG1, kappa, L234A L235A)
heavy: B1 heavy
light: not shown
scFv: not shown
notes: anti-CD37/anti-CD3
B4: BTE-0142 (bispecific antibody, human IgG1, kappa, L234A L235A)
heavy: B1 heavy
light: not shown
scFv: not shown
notes: anti-CD37/anti-CD3
B5: BTE-0147 (bispecific antibody, human IgG1, kappa, L234A L235A)
heavy: B1 heavy
light: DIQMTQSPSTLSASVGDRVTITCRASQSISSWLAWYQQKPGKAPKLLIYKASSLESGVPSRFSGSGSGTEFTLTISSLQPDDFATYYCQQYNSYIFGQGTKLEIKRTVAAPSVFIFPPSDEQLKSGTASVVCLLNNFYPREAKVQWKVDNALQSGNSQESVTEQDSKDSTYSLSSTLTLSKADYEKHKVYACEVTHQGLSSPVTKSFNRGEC
scFv: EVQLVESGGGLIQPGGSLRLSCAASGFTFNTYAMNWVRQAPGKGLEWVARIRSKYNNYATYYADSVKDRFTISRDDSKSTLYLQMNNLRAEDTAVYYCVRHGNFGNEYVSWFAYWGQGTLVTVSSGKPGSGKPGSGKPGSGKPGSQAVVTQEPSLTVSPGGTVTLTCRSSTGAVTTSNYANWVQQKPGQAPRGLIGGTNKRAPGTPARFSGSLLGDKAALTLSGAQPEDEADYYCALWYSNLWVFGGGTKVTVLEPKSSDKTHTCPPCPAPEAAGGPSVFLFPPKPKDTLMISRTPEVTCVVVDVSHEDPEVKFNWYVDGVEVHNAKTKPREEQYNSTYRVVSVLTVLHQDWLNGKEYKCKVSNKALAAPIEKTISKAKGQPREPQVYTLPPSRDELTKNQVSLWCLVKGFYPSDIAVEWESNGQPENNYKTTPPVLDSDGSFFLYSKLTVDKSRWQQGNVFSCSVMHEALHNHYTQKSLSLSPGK
notes: anti-CD37/anti-CD3
B6: BTE-0141 (bispecific antibody, human IgG1, kappa, L234A L235A)
heavy: B1 heavy
light: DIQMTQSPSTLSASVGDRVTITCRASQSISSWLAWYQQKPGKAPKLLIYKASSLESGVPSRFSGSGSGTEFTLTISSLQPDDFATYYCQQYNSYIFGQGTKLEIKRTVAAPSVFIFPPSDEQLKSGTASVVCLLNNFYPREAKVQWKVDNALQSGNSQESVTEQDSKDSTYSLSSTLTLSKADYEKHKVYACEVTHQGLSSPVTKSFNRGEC
scFv: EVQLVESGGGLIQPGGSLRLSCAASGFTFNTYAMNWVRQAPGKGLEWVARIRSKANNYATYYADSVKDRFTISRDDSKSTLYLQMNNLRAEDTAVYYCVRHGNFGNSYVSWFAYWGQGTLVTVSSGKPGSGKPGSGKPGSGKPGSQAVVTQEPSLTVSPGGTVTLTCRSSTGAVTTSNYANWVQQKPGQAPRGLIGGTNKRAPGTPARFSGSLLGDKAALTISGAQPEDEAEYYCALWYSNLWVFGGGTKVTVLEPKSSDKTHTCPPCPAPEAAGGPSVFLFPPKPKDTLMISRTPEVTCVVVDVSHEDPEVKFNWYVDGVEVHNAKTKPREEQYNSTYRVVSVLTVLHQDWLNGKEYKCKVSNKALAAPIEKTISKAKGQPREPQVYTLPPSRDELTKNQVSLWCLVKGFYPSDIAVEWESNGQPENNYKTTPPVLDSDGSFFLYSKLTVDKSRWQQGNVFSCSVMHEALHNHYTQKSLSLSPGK
notes: anti-CD37/anti-CD3
B7: BTE-0139 (bispecific antibody, human IgG1, kappa, L234A L235A)
heavy: B1 heavy
light: not shown
scFv: not shown
notes: anti-CD37/anti-CD3
B8: BTE-0136 (bispecific antibody, human IgG1, kappa, L234A L235A)
heavy: B1 heavy
light: not shown
scFv: not shown
notes: anti-CD37/anti-CD3
B9: BTE-0152 (bispecific antibody, human IgG1, kappa, L234A L235A)
heavy: B1 heavy
light: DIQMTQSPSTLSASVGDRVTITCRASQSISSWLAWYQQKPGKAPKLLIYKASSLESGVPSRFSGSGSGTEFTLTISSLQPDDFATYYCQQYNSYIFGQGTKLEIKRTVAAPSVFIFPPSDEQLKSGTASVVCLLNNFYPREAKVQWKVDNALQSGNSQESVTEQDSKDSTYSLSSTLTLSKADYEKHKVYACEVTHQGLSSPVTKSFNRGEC
scFv: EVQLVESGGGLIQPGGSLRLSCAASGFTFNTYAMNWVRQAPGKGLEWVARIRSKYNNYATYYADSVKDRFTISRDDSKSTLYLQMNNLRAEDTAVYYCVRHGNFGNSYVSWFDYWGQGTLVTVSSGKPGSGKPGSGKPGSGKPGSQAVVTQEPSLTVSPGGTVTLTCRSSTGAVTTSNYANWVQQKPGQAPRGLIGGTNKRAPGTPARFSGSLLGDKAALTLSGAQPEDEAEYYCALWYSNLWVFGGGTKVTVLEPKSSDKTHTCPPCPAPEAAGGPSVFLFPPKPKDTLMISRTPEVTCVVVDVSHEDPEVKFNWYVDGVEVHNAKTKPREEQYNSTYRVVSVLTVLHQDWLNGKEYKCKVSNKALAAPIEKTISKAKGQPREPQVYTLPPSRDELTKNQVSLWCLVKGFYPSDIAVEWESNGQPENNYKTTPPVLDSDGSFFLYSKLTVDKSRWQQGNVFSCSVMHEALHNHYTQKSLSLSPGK
notes: anti-CD37/anti-CD3
B10: BTE-0148 (bispecific antibody, human IgG1, kappa, L234A L235A)
heavy: B1 heavy
light: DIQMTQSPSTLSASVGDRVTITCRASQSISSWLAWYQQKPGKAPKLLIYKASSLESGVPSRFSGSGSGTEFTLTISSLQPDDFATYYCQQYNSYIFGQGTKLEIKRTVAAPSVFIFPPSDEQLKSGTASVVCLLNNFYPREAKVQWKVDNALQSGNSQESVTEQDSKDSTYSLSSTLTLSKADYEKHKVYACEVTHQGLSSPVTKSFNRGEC
scFv: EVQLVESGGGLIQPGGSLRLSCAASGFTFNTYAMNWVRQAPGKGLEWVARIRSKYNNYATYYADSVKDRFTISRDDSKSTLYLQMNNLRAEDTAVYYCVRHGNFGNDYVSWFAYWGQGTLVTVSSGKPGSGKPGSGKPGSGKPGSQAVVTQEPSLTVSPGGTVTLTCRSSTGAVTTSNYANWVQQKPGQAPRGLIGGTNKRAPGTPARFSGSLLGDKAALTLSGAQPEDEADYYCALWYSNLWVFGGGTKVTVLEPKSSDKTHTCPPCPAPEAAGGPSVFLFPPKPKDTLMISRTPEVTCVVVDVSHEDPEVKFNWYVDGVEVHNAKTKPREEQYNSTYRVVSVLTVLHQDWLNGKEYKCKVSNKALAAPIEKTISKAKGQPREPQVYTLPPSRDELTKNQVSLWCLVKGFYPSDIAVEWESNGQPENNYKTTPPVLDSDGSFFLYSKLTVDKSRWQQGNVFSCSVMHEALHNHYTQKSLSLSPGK
notes: anti-CD37/anti-CD3
B11: BTE-0143 (bispecific antibody, human IgG1, kappa, L234A L235A)
heavy: B1 heavy
light: not shown
scFv: not shown
notes: anti-CD37/anti-CD3
B12: BTE-0145 (bispecific antibody, human IgG1, kappa, L234A L235A)
heavy: B1 heavy
light: not shown
scFv: not shown
notes: anti-CD37/anti-CD3
B13: BTE-0144 (bispecific antibody, human IgG1, kappa, L234A L235A)
heavy: B1 heavy
light: not shown
scFv: not shown
notes: anti-CD37/anti-CD3
B14: BTE-0146 (bispecific antibody, human IgG1, kappa, L234A L235A)
heavy: B1 heavy
light: not shown
scFv: not shown
notes: anti-CD37/anti-CD3
B15: BTE-0140 (bispecific antibody, human IgG1, kappa, L234A L235A)
heavy: B1 heavy
light: not shown
scFv: not shown
notes: anti-CD37/anti-CD3
B16: BTE-0149 (bispecific antibody, human IgG1, kappa, L234A L235A)
heavy: B1 heavy
light: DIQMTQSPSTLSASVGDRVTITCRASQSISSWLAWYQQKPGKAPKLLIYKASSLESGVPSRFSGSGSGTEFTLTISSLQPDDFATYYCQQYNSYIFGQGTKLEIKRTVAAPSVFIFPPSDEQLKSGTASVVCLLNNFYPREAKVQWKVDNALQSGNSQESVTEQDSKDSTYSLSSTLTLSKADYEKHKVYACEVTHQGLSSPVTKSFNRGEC
scFv: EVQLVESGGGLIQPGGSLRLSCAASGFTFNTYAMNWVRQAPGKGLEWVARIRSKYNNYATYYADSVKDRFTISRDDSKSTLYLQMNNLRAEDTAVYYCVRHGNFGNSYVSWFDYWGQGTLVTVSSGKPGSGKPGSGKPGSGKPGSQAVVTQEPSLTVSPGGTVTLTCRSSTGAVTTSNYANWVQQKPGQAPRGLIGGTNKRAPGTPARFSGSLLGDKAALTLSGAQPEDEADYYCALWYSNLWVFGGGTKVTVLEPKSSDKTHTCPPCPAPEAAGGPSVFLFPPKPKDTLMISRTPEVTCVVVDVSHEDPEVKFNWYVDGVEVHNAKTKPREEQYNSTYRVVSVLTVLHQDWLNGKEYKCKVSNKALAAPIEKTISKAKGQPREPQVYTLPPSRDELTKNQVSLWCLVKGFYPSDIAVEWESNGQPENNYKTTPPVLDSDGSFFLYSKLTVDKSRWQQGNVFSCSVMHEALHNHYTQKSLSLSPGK
notes: anti-CD37/anti-CD3

Target: T1, CD3εδ complex protein (human; alpaca, UniProt P07766 23-126; P04234 22-105)
T1 construct: they are not part of the secreted protein; also called human CD3; CD386 complex protein
T1 sequence (P07766 23-126 limits assumed, stated change not applied, form in doubt, chain 1 of 2): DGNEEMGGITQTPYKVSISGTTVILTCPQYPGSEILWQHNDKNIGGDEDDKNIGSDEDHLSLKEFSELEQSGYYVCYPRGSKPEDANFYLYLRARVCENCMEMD
T1 sequence (P04234 22-105 limits assumed, stated change not applied, form in doubt, chain 2 of 2): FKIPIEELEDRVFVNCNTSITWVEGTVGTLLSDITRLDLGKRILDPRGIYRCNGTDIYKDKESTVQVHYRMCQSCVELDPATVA
Assay: ELISA, CD3 complex immobilized
Experimental: Binding activities of the anti-TSPAN8/anti-CD3 bispecific antibodies BTE-0001 to BTE-0067 to CD3 were evaluated by the ELISA. ELISA was performed according to a conventional method. The […] complex protein obtained in Example 1-3 was immobilized on a plate. BTE-0001 to BTE-0067 were used as the test antibodies. As a secondary antibody, Goat anti-Human IgG Fc, Multi-Species SP ads-HRP (2014-05, available from SouthernBiotech) was used. TMB+Substrate-Chromogen (S1599, available from Dako) was used as the detection reagent. Infinite M200pro (available from Tecan) was used to measure the absorbance. The EC50 values were calculated using variable slope model (four parameters) in GraphPad Prism with the maximum value in the same plate fixed at the top and the minimum value in the blank in the same plate fixed at the bottom. Since BTE-0001 was always measured in each plate as a control, only the EC50 value of BTE-0001 was expressed as the average value of a plurality of plates. […]

| Binder | EC50 [µg/mL] |
| --- | --- |
| B1 | 0.0747 |
| B2 | 0.071 |
| B3 | 1.6 |
| B4 | 0.292 |
| B5 | 0.0317 |
| B6 | 0.029 |
| B7 | 0.444 |
| B8 | 0.0669 |
| B9 | 0.36 |
| B10 | 0.0364 |
| B11 | 0.0644 |
| B12 | 0.0854 |
| B13 | 0.138 |
| B14 | 0.488 |
| B15 | 0.205 |
| B16 | 0.209 |

From patent US20250304706A1 (Astellas, published 2025)
